Source: US20190248863A1

What was measured:
Assay in all cases: cell-based or functional assay
human RXFP2 (human) = human RXFP2 (human) (UniProt Q8WXD0)
human RXFP4 (human) = human RXFP4 (human) (UniProt Q8TDU9)
human RXFP3 (human) = human RXFP3 (human) (UniProt Q9NSD7)
Sequence of human RXFP3 (human) (Q9NSD7 whole entry): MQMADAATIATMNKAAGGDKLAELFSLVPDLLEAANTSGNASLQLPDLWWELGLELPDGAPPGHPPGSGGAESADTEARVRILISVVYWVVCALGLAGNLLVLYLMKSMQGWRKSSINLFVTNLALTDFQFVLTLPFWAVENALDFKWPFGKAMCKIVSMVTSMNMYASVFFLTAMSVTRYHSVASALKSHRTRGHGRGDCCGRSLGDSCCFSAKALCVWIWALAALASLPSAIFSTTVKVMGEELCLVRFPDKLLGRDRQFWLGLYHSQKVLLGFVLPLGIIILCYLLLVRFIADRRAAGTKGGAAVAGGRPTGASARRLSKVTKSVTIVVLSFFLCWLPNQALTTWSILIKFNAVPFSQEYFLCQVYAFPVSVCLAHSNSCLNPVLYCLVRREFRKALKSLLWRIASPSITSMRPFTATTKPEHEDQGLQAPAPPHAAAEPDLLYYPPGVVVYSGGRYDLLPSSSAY

Sequence of human RXFP4 (human) (Q8TDU9 whole entry): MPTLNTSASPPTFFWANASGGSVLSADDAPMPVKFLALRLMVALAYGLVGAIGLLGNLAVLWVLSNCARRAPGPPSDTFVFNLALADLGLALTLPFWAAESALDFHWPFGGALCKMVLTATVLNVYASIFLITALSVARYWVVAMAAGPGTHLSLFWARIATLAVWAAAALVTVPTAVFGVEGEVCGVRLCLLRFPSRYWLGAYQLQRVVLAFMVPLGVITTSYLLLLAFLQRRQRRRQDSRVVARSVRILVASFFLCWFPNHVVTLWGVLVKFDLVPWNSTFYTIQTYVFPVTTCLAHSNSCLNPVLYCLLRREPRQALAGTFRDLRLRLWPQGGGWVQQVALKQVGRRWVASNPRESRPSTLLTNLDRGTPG
Sequence of human RXFP2 (human) (Q8WXD0 whole entry): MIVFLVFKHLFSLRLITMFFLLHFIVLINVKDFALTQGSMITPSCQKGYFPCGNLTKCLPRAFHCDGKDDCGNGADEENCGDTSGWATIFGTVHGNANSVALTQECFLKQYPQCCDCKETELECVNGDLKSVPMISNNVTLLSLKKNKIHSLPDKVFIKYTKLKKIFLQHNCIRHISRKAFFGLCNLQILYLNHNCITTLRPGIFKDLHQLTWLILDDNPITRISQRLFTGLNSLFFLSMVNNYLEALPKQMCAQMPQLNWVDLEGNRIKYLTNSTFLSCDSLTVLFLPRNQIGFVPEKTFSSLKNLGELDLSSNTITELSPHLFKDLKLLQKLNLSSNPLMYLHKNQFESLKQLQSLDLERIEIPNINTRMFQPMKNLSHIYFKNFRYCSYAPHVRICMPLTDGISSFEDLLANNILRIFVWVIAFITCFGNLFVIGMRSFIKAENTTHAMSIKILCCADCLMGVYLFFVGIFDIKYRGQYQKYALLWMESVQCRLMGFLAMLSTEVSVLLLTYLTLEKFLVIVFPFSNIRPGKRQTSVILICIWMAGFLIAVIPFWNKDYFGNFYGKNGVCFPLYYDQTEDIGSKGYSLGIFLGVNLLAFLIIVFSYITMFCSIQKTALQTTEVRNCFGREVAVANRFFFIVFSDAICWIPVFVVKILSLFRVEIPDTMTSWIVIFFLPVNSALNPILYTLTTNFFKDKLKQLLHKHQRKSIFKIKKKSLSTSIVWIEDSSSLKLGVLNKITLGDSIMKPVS

cAMP Assay EC50 (nM), human RXFP2/CHO-K1 cells (human RXFP2 (human)) [nM] | cAMP Assay EC50 (nM), inhibition of forskolin-induced cAMP, human RXFP4/CHO-K1 cells (human RXFP4 (human)) [nM] | maximal inhibition of forskolin-induced cAMP (partial agonist activity), human RXFP4/CHO-K1 cells (human RXFP4 (human)) [%] | cAMP Assay EC50 (nM), inhibition of forskolin-induced cAMP, human RXFP3/CHO-K1 cells (human RXFP3 (human)) [nM] | Substance
0.46 |  |  |  | insulin like 3 protein-INSL3 (from UniProt P51460 106-131; P51460 21-55) (ligand)
 | 2.8 | 40 | 0.6 | recombinant human relaxin 3 (from UniProt Q8WXF3 119-142; Q8WXF3 26-52) (ligand)
